According to patent US20070249813A1:
pKd: −log10 of the molar value.

Tests used:
[1] = target: biotinylated recombinant human TNFα (human) (UniProt P01375); assay: SPR (BIAcore), [Ab] 400 nM over immobilized biotinylated rhTNFα
[2] = target: biotinylated recombinant human TNFα (human) (UniProt P01375); assay: SPR (BIAcore), [Ab] 200 nM over immobilized biotinylated rhTNFα
[3] = target: biotinylated recombinant human TNFα (human) (UniProt P01375); assay: SPR (BIAcore), [Ab] 6 nM over immobilized biotinylated rhTNFα
[4] = target: biotinylated recombinant human TNFα (human) (UniProt P01375); assay: SPR (BIAcore), [Ab] 50 nM over immobilized biotinylated rhTNFα
[5] = target: biotinylated recombinant human TNFα (human) (UniProt P01375); assay: SPR (BIAcore), [Ab] 3 nM over immobilized biotinylated rhTNFα
[6] = target: biotinylated recombinant human TNFα (human) (UniProt P01375); assay: SPR (BIAcore), [Ab] 25 nM over immobilized biotinylated rhTNFα
[7] = target: biotinylated recombinant human TNFα (human) (UniProt P01375); assay: SPR (BIAcore), [Ab] 100 nM over immobilized biotinylated rhTNFα
[8] = target: biotinylated recombinant human TNFα (human) (UniProt P01375); assay: summary table of binding properties for hTNFα (assay not named there)
[9] = target: recombinant human TNFα (human) (UniProt P01375); assay: cell-based or functional assay
[10] = target: biotinylated recombinant human TNFα (human) (UniProt P01375); assay: SPR (BIAcore), [Ab] 13 nM over immobilized biotinylated rhTNFα

biotinylated recombinant human TNFα (human), sequence (P01375 77-233 limits assumed): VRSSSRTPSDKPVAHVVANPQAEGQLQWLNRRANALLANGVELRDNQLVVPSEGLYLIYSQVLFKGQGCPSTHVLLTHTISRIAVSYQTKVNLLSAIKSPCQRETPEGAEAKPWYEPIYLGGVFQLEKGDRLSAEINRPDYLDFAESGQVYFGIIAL
recombinant human TNFα (human), sequence (P01375 77-233 limits assumed): as above

Ab, bound, RUs [1]: 881 RU | Ab, bound, RUs [2]: 1080 RU | Ab, bound, RUs [3]: 433 RU | Ab, bound, RUs [4]: 1110 RU | Ab, bound, RUs [5]: 231 RU | Ab, bound, RUs [6]: 957 RU | Ab, bound, RUs [7]: 1140 RU | pKd [8]: 9.34 | Stoichiometry [8]: 1.4 | Ab, bound, RUs [10]: 708 RU
Substance: MAK 195 F(ab′)2 fragment (antibody)
IC50, neutralization of TNFα-induced L929 cytotoxicity [9]: 0.062 nM
